Consider two molecules from patent US20220387487A1, “COMPOSITIONS AND METHODS FOR TREATMENT OF CANCER” (Aleta Biotherapeutics Inc., priority 2019, published 2022).

In one data set the test system is U937 cells. In words: CAR-CD19 T cell cytotoxicity bridged by purified fusion protein, luciferase U937 cells. It is filed as cell-based. The note with it: FIG. 21B. As for the experimental part: Several fusion proteins were purified and evaluated for their ability to bridge killing of CLL-1 expressing cells by CAR-T cells that target CD19. Luciferase was introduced to U937 cells and […] by lentiviral transduction. On day 1 U937 cells were seeded at 1×10^4 per well of a round-bottom 96 well plate (Thermo Fisher) or 293T-CLL-1 cells were seeded in a flat bottom plate in cell culture media (RPMI 1640, 10% FBS). On day 2, the fusion proteins #357, #330 and #321 were added at 0.2 μg/ml (20 ng/well) with serial 3 fold dilutions where indicated, then left to incubate at 37° C. for 1 hour using the cell culture incubator. […]
On day 3, the plate was spun at 550 RCF for 5 minutes and rinsed with PBS then spun again to remove the PBS. […] The injector added 100 μl of Luciferase assay reagent per well, then the well was read immediately. The plate was then advanced to the next well for a repeat of the inject-then-read process. […]
The % cell death (aka cytotoxicity) was calculated as follows:
% killing=[1−luc reading (experimental wells)/luc reading (tumor cells without CAR T cells)]×100. […]
To test cytoxicity, luciferase labeled Molm14 or U937 cells were targeted for cytotoxic killing using a CAR19 T cell preparation and the purified proteins #330, #410 and #440 added in a dose titration. […] The plates were read in a luminometer with an injector (Glomax Multi Detection System, Promega). […]

For the next data set, the target named is CD33 (Homo sapiens, UniProt P20138). The data set is described as follows: ELISA of fusion proteins, FMC63 coat, biotinylated CD33 detection. The class given is binding. As for the experimental part: ELISAs for binding to CD19, CLEC12A and CD33 were run using purified fusion proteins #330, #410 and #440. A 96 well plate was coated with 1.0 μg/ml FMC63 (Novus) in 0.1 M carbonate, pH 9.5 overnight at 4° C. The plate was blocked with 0.3% non-fat milk in TBS for 1 hour at room temperature. After washing in TBST (0.1 M Tris, 0.5 M NaCl, 0.05% Tween20) 3 times, the fusion protein supernatant was titrated using 3-fold dilutions in 1% BSA in TBS and incubated 1 hour at room temperature. For detection by anti-His, after washing 3 times in TBST, HRP-anti-His (BioLegend) was added at 1:2000. The plate was incubated at room temperature in the dark for 1 hour. For detection of binding to CLEC12A, biotinylated CLEC12A was added at 0.5 μg/ml and incubated for 1 hour. This was followed by adding HRP-SA (Pierce) at 1:2000 and incubated at room temperature in the dark for 1 hour. For testing binding to CD33, biotinylated CD33 was added at 0.5 μg/ml and incubated for 1 hour. This was followed by adding HRP-SA (Pierce) at 1:2000 and incubated at room temperature in the dark for 1 hour. Then, 1-Step Ultra TMB-ELISA (Thermo Fisher) solution, was added and the plate read at […]. Curves were fit using a four-parameter logistic (4 PL) regression to calculate the EC50.
CD33, sequence (P20138 18-364): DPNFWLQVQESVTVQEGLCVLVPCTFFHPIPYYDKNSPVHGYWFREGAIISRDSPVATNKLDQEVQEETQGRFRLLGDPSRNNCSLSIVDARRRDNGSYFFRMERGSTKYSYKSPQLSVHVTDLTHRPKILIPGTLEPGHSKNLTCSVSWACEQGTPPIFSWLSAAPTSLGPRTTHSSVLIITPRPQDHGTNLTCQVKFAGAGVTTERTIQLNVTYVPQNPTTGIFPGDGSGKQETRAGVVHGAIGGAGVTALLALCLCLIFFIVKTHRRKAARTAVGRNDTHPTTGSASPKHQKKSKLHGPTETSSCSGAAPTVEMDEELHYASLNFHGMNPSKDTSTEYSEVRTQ
In general terms: ELISA stands for enzyme-linked immunosorbent assay.

In another data set the test system is Molm14 cells. In words: CAR-CD19 T cell cytotoxicity bridged by purified fusion protein, luciferase Molm14 cells. The note with it: FIG. 21A. The class given is cell-based. As for the experimental part:
To test cytoxicity, luciferase labeled Molm14 or U937 cells were targeted for cytotoxic killing using a CAR19 T cell preparation and the purified proteins #330, #410 and #440 added in a dose titration. 1×10^4 target cells were added to each well (96 clear round bottom plate) in RPMI medium. The protein titration was started at 180 ng/ml with 3-fold serial titration into corresponding wells (25 μl per well). CAR-CD19 T cells were added at various E:T ratios to the target cells. After 48 hours the plate was centrifuged (450 RCF for 5 minutes) and the cells were washed 1× with PBS then centrifuged a second time. 20 μl lysis buffer was added into each well. The cell lysate was transferred to a 96 opaque white plate. The plates were read in a luminometer with an injector (Glomax Multi Detection System, Promega). The percent killing was calculated based upon the average loss of luminescence of the experimental vs the control (target cell only or target cell plus fusion protein only).

Another data set addresses CLEC12A. The data set is described as follows: ELISA binding of fusion proteins (FMC63 coat, HRP-anti-His detection). Set-up: species or system human. The note with it: purified fusion protein. As for the experimental part:
The binding of the biparatopic fusion proteins to CLEC12A was also examined by ELISA. […] The plate was left to incubate overnight at 4° C. The coated plate was blocked with TBS/0.3% nonfat dry milk (NFD) for 60 minutes at RT.

Setting [1] is: ELISA, FMC63 coat, biotinylated CD33.

Where two headings read alike, the source gives them in different places.

CLEC12A, sequence (as listed by the source): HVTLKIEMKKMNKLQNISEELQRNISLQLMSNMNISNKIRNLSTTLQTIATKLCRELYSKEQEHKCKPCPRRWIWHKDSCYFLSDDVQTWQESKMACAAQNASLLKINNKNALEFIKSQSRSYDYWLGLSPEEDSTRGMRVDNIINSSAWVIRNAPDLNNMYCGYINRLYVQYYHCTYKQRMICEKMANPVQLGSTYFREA

B1: #440: fusion protein comprising an anti-CLEC12A VHH, an anti-CD33 scFv, and a CD19 ECD; SEQ ID NO:321 (protein)
chain: MEFGLSWVFLVALFRGVQCQVQLVQSGAEVKKPGESVKVSCKASGYTFTNYGMNWVKQAPGQGLEWMGWINTYTGEPTYADKFQGRVTMTTDTSTSTAYMEIRNLGGDDTAVYYCARWSWSDGYYVYFDYWGQGTSVTVSSGGGGSGGGGSGGGGSDIVMTQSPDSLTVSLGERTTINCKSSQSVLDSSTNKNSLAWYQQKPGQPPKLLLSWASTRESGIPDRFSGSGSGTDFTLTIDSPQPEDSATYYCQQSAHFPITFGQGTRLEIKGGGGSGGGGSGGGGSGGGGSQVQLQESGGGLVQAGGSLRLSCVASGSIRSINVMGWYRQAPGKQRELVAACASDGNTYYADSVKGRFTISRDNAEKTVYLQMNNLKPDDTAVYYCDANSRGNYYSGQGTQVTVSSTSGPGGQGAGGGGSGGGGSGGGGSGGGGSPEEPLVVKVEEGDTAALWCLKGTSDGPTQQLTWSRESPLKPFLKYSLGVPGLGVHVRPDAISVVIRNVSQQMGGFYLCQPGPPSEKAWQPGWTVNVEGSGELFRWNVSDLGGLGCGLKNRSSEGPSSPSGKLMSPKLYVWAKDRPEIWEGEPPCLPPRDSLNQSLSRDLTVAPGSTLWLSCGVPPDSVSRGPLSWTHVHPKGPKSLLSLELKDDRPARDMWVMGTSLMLPRATAQDAGKWYCHRGNLTMSFHLEITARPSRHHHHHH
For the molecule B1, in the data set on U937 cells, the “cytotoxicity on U937 cells” value is on record as “essentially the same activity”. Besides, the “CD33 binding EC50” value with CD33 (setting [1]) was 2.1 ng/mL. The “ELISA binding to CD33” value with CD33 (Table 10) is listed as “binds equally well to both components”. Moreover, the “cytotoxicity on Molm14 cells” value in the data set with Molm14 cells is reported as “about equipotent”.

B2: #330: fusion protein comprised of a CD19 variant and an anti-CLL-1 VHH (2H3); SEQ ID NO:305 (protein)
chain: MEFGLSWVFLVALFRGVQCQVQLQESGGGLVQAGGSLRLSCVASGSIRSINVMGWYRQAPGKQRELVAACASDGNTYYADSVKGRFTISRDNAEKTVYLQMNNLKPDDTAVYYCDANSRGNYYSGQGTQVTVSSTSGPGGQGAGGGGSGGGGSGGGGSGGGGSPEEPLVVKVEEGDTAALWCLKGTSDGPTQQLTWSRESPLKPFLKYSLGVPGLGVHVRPDAISVVIRNVSQQMGGFYLCQPGPPSEKAWQPGWTVNVEGSGELFRWNVSDLGGLGCGLKNRSSEGPSSPSGKLMSPKLYVWAKDRPEIWEGEPPCLPPRDSLNQSLSRDLTVAPGSTLWLSCGVPPDSVSRGPLSWTHVHPKGPKSLLSLELKDDRPARDMWVMGTSLMLPRATAQDAGKWYCHRGNLTMSFHLEITARPSRHHHHHH
Usually EC50 stands for the concentration needed to bring the measured effect to its halfway point. Take B2: the EC50 on CLEC12A (FMC63 coat, read-out: CLEC12A binding (ELISA EC50)) was 0.013 nM. For the same molecule, the EC50 at CLEC12A (Table 8, read-out: EC50 of binding by ELISA) worked out at 0.01 nM. In addition, in the data set with U937 cells, the “cytotoxicity on U937 cells” value was “highest cytotoxicity”. Also, in the data set with CD33 (setting [1]), the “CD33 binding EC50 pM” value was “∞” and the “CD33 binding EC50 ng/ml” value is “∞”. The “cytotoxicity on Molm14 cells” value in the data set with Molm14 cells is listed as “less potent”.
